Data reported in the supplement of paper PMC10567573.

B1: WDFY1 (parent)
chain: LLIPKEDGVITASEDRTIRVWLKR

Variants of: B1
Test: protein stability index of a GFP-peptide fusion (GPS, HEK-293T) (PSI 1-6); higher = more stable
Details: c terminus: a fixed tail appended
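Note: lentivirally expressed fusions sorted by FACS into six bins by GFP to DsRed ratio, PSI derived from sequencing read proportions per bin multiplied by bin number.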

Variant	protein stability index
LLIPKEDGVITSSEDRTIRVWLKR [A12S]	1.71
LLIPKEDGVITYSEDRTIRVWLKR [A12Y]	2.66
LLIPKEDGVITAAEDRTIRVWLKR [S13A]	1.56
LLIPKEDGVITACEDRTIRVWLKR [S13C]	1.51
LLIPKEDGVITADEDRTIRVWLKR [S13D]	2.53
LLIPKEDGVITAEEDRTIRVWLKR [S13E]	1.5
LLIPKEDGVITAGEDRTIRVWLKR [S13G]	2.42
LLIPKEDGVITAHEDRTIRVWLKR [S13H]	1.91
LLIPKEDGVITAIEDRTIRVWLKR [S13I]	2.57
LLIPKEDGVITAKEDRTIRVWLKR [S13K]	2.06
LLIPKEDGVITALEDRTIRVWLKR [S13L]	2.15
LLIPKEDGVITAMEDRTIRVWLKR [S13M]	1.45
LLIPKEDGVITANEDRTIRVWLKR [S13N]	1.99
LLIPKEDGVITAPEDRTIRVWLKR [S13P]	1.66
LLIPKEDGVITAQEDRTIRVWLKR [S13Q]	3.07
LLIPKEDGVITATEDRTIRVWLKR [S13T]	2.2
LLIPKEDGVITAVEDRTIRVWLKR [S13V]	2.32
LLIPKEDGVITAYEDRTIRVWLKR [S13Y]	2.08
LLIPKEDGVITASADRTIRVWLKR [E14A]	1.71
LLIPKEDGVITASCDRTIRVWLKR [E14C]	2.41
LLIPKEDGVITASDDRTIRVWLKR [E14D]	3.39
LLIPKEDGVITASFDRTIRVWLKR [E14F]	2.37
LLIPKEDGVITASGDRTIRVWLKR [E14G]	2.29
LLIPKEDGVITASIDRTIRVWLKR [E14I]	2.76

Variant	protein stability index
LLIPKEDGVITASKDRTIRVWLKR [E14K]	1.93
LLIPKEDGVITASMDRTIRVWLKR [E14M]	2.62
LLIPKEDGVITASPDRTIRVWLKR [E14P]	2.62
LLIPKEDGVITASQDRTIRVWLKR [E14Q]	2.14
LLIPKEDGVITASRDRTIRVWLKR [E14R]	2.78
LLIPKEDGVITASTDRTIRVWLKR [E14T]	1.73
LLIPKEDGVITASVDRTIRVWLKR [E14V]	1.9
LLIPKEDGVITASWDRTIRVWLKR [E14W]	1
LLIPKEDGVITASYDRTIRVWLKR [E14Y]	1.32
LLIPKEDGVITASECRTIRVWLKR [D15C]	1.1
LLIPKEDGVITASEERTIRVWLKR [D15E]	1.66
LLIPKEDGVITASEGRTIRVWLKR [D15G]	2.09
LLIPKEDGVITASEKRTIRVWLKR [D15K]	1.41
LLIPKEDGVITASEMRTIRVWLKR [D15M]	1.55
LLIPKEDGVITASEPRTIRVWLKR [D15P]	2.17
LLIPKEDGVITASEQRTIRVWLKR [D15Q]	2.32
LLIPKEDGVITASETRTIRVWLKR [D15T]	1.19
LLIPKEDGVITASEVRTIRVWLKR [D15V]	1.37
LLIPKEDGVITASEYRTIRVWLKR [D15Y]	2.97
LLIPKEDGVITASEDATIRVWLKR [R16A]	1.92
LLIPKEDGVITASEDCTIRVWLKR [R16C]	1.6
LLIPKEDGVITASEDDTIRVWLKR [R16D]	2.6
LLIPKEDGVITASEDETIRVWLKR [R16E]	2.81
LLIPKEDGVITASEDGTIRVWLKR [R16G]	1.89

Variant	protein stability index
LLIPKEDGVITASEDHTIRVWLKR [R16H]	1.6
LLIPKEDGVITASEDITIRVWLKR [R16I]	1.43
LLIPKEDGVITASEDKTIRVWLKR [R16K]	1.74
LLIPKEDGVITASEDLTIRVWLKR [R16L]	2.22
LLIPKEDGVITASEDMTIRVWLKR [R16M]	2.19
LLIPKEDGVITASEDNTIRVWLKR [R16N]	3.22
LLIPKEDGVITASEDPTIRVWLKR [R16P]	2.37
LLIPKEDGVITASEDQTIRVWLKR [R16Q]	2.2
LLIPKEDGVITASEDSTIRVWLKR [R16S]	1.7
LLIPKEDGVITASEDTTIRVWLKR [R16T]	1.65
LLIPKEDGVITASEDVTIRVWLKR [R16V]	1.95
LLIPKEDGVITASEDYTIRVWLKR [R16Y]	1.41
LLIPKEDGVITASEDRAIRVWLKR [T17A]	2.74
LLIPKEDGVITASEDRCIRVWLKR [T17C]	2.1
LLIPKEDGVITASEDRDIRVWLKR [T17D]	1.94
LLIPKEDGVITASEDREIRVWLKR [T17E]	1.81
LLIPKEDGVITASEDRFIRVWLKR [T17F]	2.12
LLIPKEDGVITASEDRGIRVWLKR [T17G]	1.39
LLIPKEDGVITASEDRHIRVWLKR [T17H]	3.16
LLIPKEDGVITASEDRIIRVWLKR [T17I]	1.61
LLIPKEDGVITASEDRLIRVWLKR [T17L]	1.82
LLIPKEDGVITASEDRMIRVWLKR [T17M]	1.73
LLIPKEDGVITASEDRNIRVWLKR [T17N]	2.77
LLIPKEDGVITASEDRPIRVWLKR [T17P]	2.51

Variant	protein stability index
LLIPKEDGVITASEDRQIRVWLKR [T17Q]	2.02
LLIPKEDGVITASEDRRIRVWLKR [T17R]	2.29
LLIPKEDGVITASEDRSIRVWLKR [T17S]	1.8
LLIPKEDGVITASEDRVIRVWLKR [T17V]	1.71
LLIPKEDGVITASEDRWIRVWLKR [T17W]	2.16
LLIPKEDGVITASEDRYIRVWLKR [T17Y]	1.33
LLIPKEDGVITASEDRTCRVWLKR [I18C]	2.07
LLIPKEDGVITASEDRTERVWLKR [I18E]	2.52
LLIPKEDGVITASEDRTGRVWLKR [I18G]	2.93
LLIPKEDGVITASEDRTHRVWLKR [I18H]	2.34
LLIPKEDGVITASEDRTKRVWLKR [I18K]	1.74
LLIPKEDGVITASEDRTLRVWLKR [I18L]	2.29
LLIPKEDGVITASEDRTMRVWLKR [I18M]	1.76
LLIPKEDGVITASEDRTPRVWLKR [I18P]	3.15
LLIPKEDGVITASEDRTQRVWLKR [I18Q]	3.97
LLIPKEDGVITASEDRTRRVWLKR [I18R]	3.55
LLIPKEDGVITASEDRTSRVWLKR [I18S]	2.94
LLIPKEDGVITASEDRTTRVWLKR [I18T]	2.89
LLIPKEDGVITASEDRTVRVWLKR [I18V]	2.61
LLIPKEDGVITASEDRTYRVWLKR [I18Y]	2.04
LLIPKEDGVITASEDRTIAVWLKR [R19A]	2.03
LLIPKEDGVITASEDRTICVWLKR [R19C]	2.5
